In patent publication US12692524B2, “Sialyltransferases and their use in producing sialylated oligosaccharides” (Chr. Hansen A/S, priority 2017, dated 2026):

Tests used:
[1] = In vitro kinetics (Km, Vmax), donor substrate CMP-Neu5Ac; type: biochemical; conditions: for Km / Vmax CMP-Neu5Ac: 30° C., pH7.5, protein extract
Experimental: (§1) To rank the best performing sialyltransferases, their Km values for donor and acceptor substrates were determined in vitro. Escherichia coli BL21(DE3) strain #287 was used for overproduction of the enzymes. Cells were incubated in 100 ml 2YT medium in shaking flasks supplemented with 100 μg m^−1 ampicillin at 30° C. until an OD600 of 0.3 was reached. Then, 0.3 mM IPTG was added and the incubation was continued for 12 to 16 hours. Cells were harvested by centrifugation and mechanically disrupted in a defined volume of 50 mM Tris-HCl pH7.5 using glass beads. The protein extract was kept on ice until the assay started. The in vitro assay was carried out in a total volume of 50 μl including 50 mM Tris-HCl pH7.5, 5 mM MgCl2 and varying concentrations of CMP-Neu5Ac (0.05-30 mM) as well as of lactose or LNT (0.1-50 mM). The assay started with the addition of 35 to 750 μg protein extract. After 1 to 10 minutes of incubation at 30° C., the assay was inactivated at 95° C. for 5 minutes. Product formation was determined by mass spectrometry. Data were evaluated using the enzyme kinetic module of SigmaPlot v12.5 to calculate Km and Vmax.
(§2) Their kinetic parameters for CMP-Neu5Ac and LNT as well as lactose are depicted in Table 6.

[2] = In vitro kinetics (Km, Vmax), acceptor substrate LNT; type: biochemical; conditions: 30° C., pH7.5, protein extract
Experimental: as §1, §2

[3] = In vitro sialylation of LNT by protein extracts, LST-a/-b quantified by LC-MS/MS; type: biochemical; conditions: for Relative efficacy of sialyltransferases regarding in-vitro production of sialyllacto-N-tetraoses: LST-a / Relative efficacy of sialyltransferases regarding in-vitro production of sialyllacto-N-tetraoses: LST-b: 5 mM LNT, 10 mM CMP-Neu5Ac, 16 hours, LC-MS/MS, relative quantity, n.d.: not detectable; for Ranking in the screening for sialylation of LNT: in words
Summary of the method: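 E. coli BL21(DE3) crude extracts overexpressing sialyltransferases (IPTG 0.3 mM, 12–16 h at 30 °C) incubated 16 h with 5 mM LNT and 10 mM CMP-Neu5Ac in 50 mM Tris-HCl pH 7.5, 5 mM MgCl2. LST-a and LST-b measured by HILIC LC-MS/MS, MRM in ESI negative mode, against commercial standards.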

[4] = In vitro kinetics (Km, Vmax), acceptor substrate lactose; type: biochemical; conditions: 30° C., pH7.5, protein extract
Experimental: as §1, §2

[5] = In vivo screening in E. coli #1363/#1730 with lactose as acceptor, sialyllactose identified by TLC; type: cell-based, Escherichia coli BL21(DE3); conditions: for Production of sialyllactose in-vivo: 1.5 mM lactose, 72 to 96 hours, qualitative via TLC
Summary of the method: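 E. coli BL21(DE3) #1363/#1730 expressing sialyltransferases were grown at 30 °C in mineral salts medium with 2% glucose and induced with 0.3 mM IPTG. After 1 h, 1.5 mM lactose was added, plus 1.5 mM sialic acid for #1730, and incubation ran 72–96 h. Cell lysates were analysed by silica TLC with thymol staining.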

Molecule | Km [1] | Vmax CMP-Neu5Ac [1] | Km [2] | Vmax LNT [2] | Relative efficacy of sialyltransferases regarding in-vitro production of sialyllacto-N-tetraoses: LST-a [3] | Ranking in the screening for sialylation of LNT [3] | Km [4] | Vmax Lactose [4] | Production of sialyllactose in-vivo [5] | Relative efficacy of sialyltransferases regarding in-vitro production of sialyllacto-N-tetraoses: LST-b [3] | Michaelis-Menten behaviour ([1]; kinetic parameters for CMP-Neu5Ac, LNT and lactose) | Described activity confirmed in the lactose screening ([5]; in words)
SiaT8: sialyltransferase of Photobacterium sp. JT-ISH-224, acc. BAF92025, SEQ ID NO: 3 (protein, listed as Photobacterium sp.) MGCNSDSNHNNSDGNITKNKTIEVYVDRATLPTIQQMTQIINENSNNKKLISWSRYPINDEELLESINGSFFKNNSELIKSLDSMILTNDIKKVIINGNTLWAADVVNIIKSIEAFGKKTEIELNFYDDGSAEYVRLYDFSKLPESEQEYKISLSKDNILSSINGTQPFENVVENIYGFSQLYPTTYHMLRADIFETNLPLRSLKGVLSNNIKQMKWDYFKTFNSQQKDKFYNFTGFNPDEIMEQYKASPNKNFIFVGTNSGTATAEQQIDILTEAKNPNSPIITKSIQGFDLFFKGHPSATYNKQIIDAHNMIEIYNKIPFEALIMTDALPDAVGGMGSSVFFSLPNTVENKFIFYKSDTDIENNALIQVMIELNIVNRNDVKLISDLQ | 4 mM | 0.35 µmol/min | 4.2 mM | 0.32 µmol/min | 4.00 × 10^3 | best performing α-2,3-sialyltransferases for LST-a production | 4.3 mM | 0.37 µmol/min | – | – | – | –
SiaT51: sialyltransferase of Photobacterium damselae subsp. damselae CIP 102761, acc. EEZ40509, SEQ ID NO: 32 (protein, listed as Photobacterium damsela) MKKILTVLSIFILSACNSDNTSLKETVSSNSADVVETETYQLTPIDAPSSFLSHSWEQTCGTPILNESDKQAISFDFVAPELKQDEKYCFTFKGITGDHRYITNTTLTVVAPTLEVYIDHASLPSLQQLIHIIQAKDEYPSNQRFVSWKRVTVDADNANKLNIHTYPLKGNNTSPEMVAAIDEYAQSKNRLNIEFYTNTAHVFNNLPPIIQPLYNNEKVKISHISLYDDGSSEYVSLYQWKDTPNKIETLEGEVSLLANYLAGTSPDAPKGMGNRYNWHKLYDTDYYFLREDYLDVEANLHDLRDYLGSSAKQMPWDEFAKLSDSQQTLFLDIVGFDKEQLQQQYSQSPLPNFIFTGTTTWAGGETKEYYAQQQVNVINNAINETSPYYLGKDYDLFFKGHPAGGVINDIILGSFPDMINIPAKISFEVLMMTDMLPDTVAGIASSLYFTIPADKVNFIVFTSSDTITDREEALKSPLVQVMLTLGIVKEKDVLFWADLPDCSSGVCIDK | – | – | – | – | – | – | – | – | 6′-SL | 10 | – | –
SiaT73: sialyltransferase of Haemophilus somnus 2336, acc. ACA31170, SEQ ID NO: 20 (protein, listed as Haemophilus somnus) MKYNIKIKAIVIVSSLRMLLIFLMLNKYHLDEVLFVFNEGFELHKKYKIKHYVAIKKKITKFWRLYYKLYFYRFKIDRIPVYGADHLGWTDYFLKYFDFYLIEDGIANFSPKRYEINLTRNIPVFGFHKTVKKIYLTSLENVPSDIRHKVELISLEHLWKTRTAQEQHNILDFFAFNLDSLISLKMKKYILFTQCLSEDRVISEQEKIAIYQHIIKNYDERLLVIKPHPRETTDYQKYFENVFVYQDVVPSELFELLDVNFERVITLFSTAVFKYDRNIVDFYGTRIHDKIYQWFGDIKF | – | – | – | – | 15 | – | – | – | 3′-SL | – | – | –
SiaT20: sialyltransferase of Campylobacter coli, acc. YP_008473374, SEQ ID NO: 1 (protein, listed as Campylobacter coli) MQNVIIAGNGPSLQSINYQRLPKEYDIFRCNQFYFEDKYYLGKNIKAAFFNPYPFLQQYHTAKQLVFNNEYKIENIFCSTFNLPFIEKDNFINKFYDFFPDAKLGHKIIENLKEFYAYIKYNEIYLNKRITSGIYMCAIAIALGYKNIYLCGIDFYEGETIYPFKAMSKNIKKIFPWIKDFNPSNFHSKEYDIEILKLLESIYKVNIYALCDNSALANYFPLLVNTDNSFVLENKSDDCINDILLTNNTPGINFYKSQIQVNNTEILLLNFQNMISAKENEISNLNKILQDSYKTINTKENEISNLNKILQDSYKTINTKENEISNLNKILQDKDKLLIVKENLLNFKSRHGKAKFRIQNQLSYKLGQAMMVNSKSLLGYIRMPFVLSYIKDKHKQEQKIYQEKIKKDPSLTLPPLEDYPDYKEALKEKECLTYRLGQTLIKADQEWYKGGYVKMWFEIKKLKKEYKKK | – | – | – | – | 1.00 × 10^4 | best performing α-2,3-sialyltransferases for LST-a production | – | – | 3′-SL | – | does not follow a Michaelis-Menten kinetic | –
SiaT6: sialyltransferase of Photobacterium sp. JT-ISH-224, acc. BAF92026, SEQ ID NO: 29 (protein, listed as Photobacterium sp.) MSEENTQSIIKNDINKTIIDEEYVNLEPINQSNISFTKHSWVQTCGTQQLLTEQNKESISLSVVAPRLDDDEKYCFDFNGVSNKGEKYITKVTLNVVAPSLEVYVDHASLPTLQQLMDIIKSEEENPTAQRYIAWGRIVPTDEQMKELNITSFALINNHTPADLVQEIVKQAQTKHRLNVKLSSNTAHSFDNLVPILKELNSFNNVTVTNIDLYDDGSAEYVNLYNWRDTLNKTDNLKIGKDYLEDVINGINEDTSNTGTSSVYNWQKLYPANYHFLRKDYLTLEPSLHELRDYIGDSLKQMQWDGFKKFNSKQQELFLSIVNFDKQKLQNEYNSSNLPNFVFTGTTVWAGNHEREYYAKQQINVINNAINESSPHYLGNSYDLFFKGHPGGGIINTLIMQNYPSMVDIPSKISFEVLMMTDMLPDAVAGIASSLYFTIPAEKIKFIVFTSTETITDRETALRSPLVQVMIKLGIVKEENVLFWADLPNCETGVCIAV | 2 mM | 0.16 µmol/min | 5.5 mM | 0.13 µmol/min | – | sialylate LNT most efficiently among the tested α-2,6-sialyltransferases | 5.6 mM | 0.20 µmol/min | 6′-SL | 300 | – | could be confirmed
